The results in this text go back to US20210261685A1 (Alector, published 2021).

The chains are these.
T1: murine MerTK overexpressed on CHO cells (CHO-muMerTK OE cells) (mouse, UniProt Q60805 19-994)
T1 construct: whole, on cells
T1 sequence (looked up): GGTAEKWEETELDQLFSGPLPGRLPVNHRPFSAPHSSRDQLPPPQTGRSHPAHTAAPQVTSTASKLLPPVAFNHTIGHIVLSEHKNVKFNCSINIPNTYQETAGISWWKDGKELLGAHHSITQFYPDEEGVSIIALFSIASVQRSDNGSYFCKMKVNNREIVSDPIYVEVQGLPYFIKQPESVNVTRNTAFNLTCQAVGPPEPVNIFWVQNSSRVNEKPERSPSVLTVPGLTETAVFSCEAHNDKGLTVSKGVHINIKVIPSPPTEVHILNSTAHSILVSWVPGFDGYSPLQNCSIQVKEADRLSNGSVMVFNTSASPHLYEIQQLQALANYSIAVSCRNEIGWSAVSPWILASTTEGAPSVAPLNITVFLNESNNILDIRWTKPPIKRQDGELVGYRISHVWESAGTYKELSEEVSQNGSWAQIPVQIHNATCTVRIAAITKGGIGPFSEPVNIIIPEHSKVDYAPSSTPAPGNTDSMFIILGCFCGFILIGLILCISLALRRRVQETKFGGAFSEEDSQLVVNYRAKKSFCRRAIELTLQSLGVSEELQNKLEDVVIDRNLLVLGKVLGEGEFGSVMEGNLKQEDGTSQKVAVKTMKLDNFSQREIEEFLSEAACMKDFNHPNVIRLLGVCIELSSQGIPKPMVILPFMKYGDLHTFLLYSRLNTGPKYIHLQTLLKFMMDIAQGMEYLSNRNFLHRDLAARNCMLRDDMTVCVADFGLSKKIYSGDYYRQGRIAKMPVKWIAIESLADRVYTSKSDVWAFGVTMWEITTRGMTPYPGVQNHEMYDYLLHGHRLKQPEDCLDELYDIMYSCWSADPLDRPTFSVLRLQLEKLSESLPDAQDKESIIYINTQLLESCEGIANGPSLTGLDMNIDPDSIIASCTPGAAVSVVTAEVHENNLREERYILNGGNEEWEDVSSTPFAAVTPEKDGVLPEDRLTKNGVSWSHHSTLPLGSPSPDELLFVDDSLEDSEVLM

T2: human MerTK endogenously expressed on cells (SK-MEL-5 cells; human macrophages) (human, UniProt Q12866 21-999)
T2 construct: also called MerTK on SK-MEL-5
T2 sequence: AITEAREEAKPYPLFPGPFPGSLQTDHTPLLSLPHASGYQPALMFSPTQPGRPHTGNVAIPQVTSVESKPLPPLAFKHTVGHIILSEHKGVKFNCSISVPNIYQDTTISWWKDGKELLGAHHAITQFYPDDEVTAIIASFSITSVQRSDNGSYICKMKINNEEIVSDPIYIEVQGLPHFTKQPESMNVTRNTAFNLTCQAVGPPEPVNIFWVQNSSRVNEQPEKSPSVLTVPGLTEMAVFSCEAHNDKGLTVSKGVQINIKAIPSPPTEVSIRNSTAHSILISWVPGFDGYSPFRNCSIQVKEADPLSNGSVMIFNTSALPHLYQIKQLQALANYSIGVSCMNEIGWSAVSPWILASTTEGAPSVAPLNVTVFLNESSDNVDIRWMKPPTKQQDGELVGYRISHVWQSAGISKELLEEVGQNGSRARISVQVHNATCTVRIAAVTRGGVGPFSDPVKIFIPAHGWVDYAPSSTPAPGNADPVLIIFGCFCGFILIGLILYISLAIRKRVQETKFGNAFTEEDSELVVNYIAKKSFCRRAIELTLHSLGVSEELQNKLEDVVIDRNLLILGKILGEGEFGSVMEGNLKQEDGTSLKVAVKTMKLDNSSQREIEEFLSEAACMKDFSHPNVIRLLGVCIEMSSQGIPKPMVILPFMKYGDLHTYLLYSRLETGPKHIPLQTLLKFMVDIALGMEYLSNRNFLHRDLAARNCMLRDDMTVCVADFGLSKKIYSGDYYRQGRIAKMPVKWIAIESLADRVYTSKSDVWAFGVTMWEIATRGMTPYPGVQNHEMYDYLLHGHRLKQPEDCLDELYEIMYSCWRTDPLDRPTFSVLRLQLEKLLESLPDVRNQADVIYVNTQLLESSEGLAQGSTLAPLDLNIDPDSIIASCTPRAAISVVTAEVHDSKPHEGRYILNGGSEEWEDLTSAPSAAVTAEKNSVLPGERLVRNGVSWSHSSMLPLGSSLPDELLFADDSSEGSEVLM

B1: MTK-30 (antibody, human IgG1, V domains shown)
VH: QVQLQQPGTELVRPGASVKLSCKASGYTFTSYWMHWVKQRPGQGLEWIGNLNPNNGGTYYNEKFKSKATLTVDKSSSTAYMQLSSLTSEDSAVYYCARQILLYFDYWGQGTTLTVSS
VL: DVLMTQTPLSLPVSLGDQASISCRSSQSIVHSNGDTYLEWYLQKPGQSPKLLIYKVSNRFSGVPDRFSGSGSGTDFTLKISRVEAEDLGVYYCFQGSHVPWTFGGGTKLEIK
B2: MTK-31 (antibody, human IgG1, V domains shown)
VH: QIQLVQSGPELKKSGETVKISCKASGYTFTSYGMSWVKQAPGKGLKWMGWINTYSGVPTYADDFKGRFAFSLETSASTAYLQINNLKNEDTATYFCASLSYDGSLYHAMDYWGQGTSVTVSS
VL: B1 VL with L3S, C23S, S28T, D35N
B3: MTK-33 (antibody, human IgG1, V domains shown)
VH: QVQLQQPGPELVRPGTSVKLSCKASGYTFTSYWMHWIKQRPGQGLEWIGVIDPSDNYINYNQKFKGKATLTVDTSSSTAYLQLSSLTSEDSAVYYCAREAGTRGYFDYWGQGTTLTVSS
VL: SIVMTQTPKFLLVSAGDRVIITCKASQSVSNTVAWYQQKPGQSPKLLIYYASNRYTGVPDRFTGSGYGTDFTFTISTVQAEDLAVYFCQQDYRSPFTFGSGTQLEMK
B4: MTK-29 (antibody, human IgG1, V domains shown)
VH: QIQLVQSGPELKKPGETVKISCKSSGFTFTTYGMSWVKQAPGKGLKWMGWINTYSGVPTYTDDFKGRFAFSLETSASTASLQINNLKNEDTATYFCARYTNYGYFDYWGQGTTLTVSS
VL: QIVLSQSPAILSASPGEKVTMTCRATSSVGYMHWYQQKPGSSPKPWIYATSNLASGVPARFSGSGSGTSYSLTISRVEAEHAATYYCQQWGSNPFTFGSGTKLEIK
B5: MTK-24 (antibody, human IgG1, V domains shown)
VH: QVQLQQPGAELVKPGASVKLSCKASGYTFTSYWMHWVKQRPGQGLEWIGMIHPNINTNYNEKFKSKATLTVDISSSTAYMQLSSLTSEDSAVYYCAKRSPYSNYDWYFDVWGTGTTVTVSS
VL: DIQMTQSPASLSVSVGETVTITCRASENIYSNLAWYQQKQGKSPQLLVYAATNLADGVPSRFSGSGSGTQYSLKINSLQSEDFGSYYCQHFWGTPLTFGAGTKLELK
B6: MTK-13 (antibody, human IgG1, V domains shown)
VH: DVQLQESGPGLVKPSQSLSLTCSVTGYSITSGYYWNWIRQFPGNKLEWMGNIDYDGSNKYNPSLKNRISITRDTSKNHFFLKLNSVTPEDTATYFCARDGGNYRSFAYWGQGTLVTVSA
VL: QIVLTQSPPIMSASPGEKVTITCSASSSVSYMYWFQQKPGTSPKLWIYSTFNLASGVPARFSGSGSGTSYSLTISRMEAEDVATYYCQQRSSYPFTFGSGTKLEIK
B7: MTK-16 (antibody, human IgG1, V domains shown)
VH: LIQLVQSGPELKKPGETVKISCKASGYTFTNHGMNWVKQDPGKGLKWMGWINTYTGEPTYADDFKGRFVFSMETSASAAFLQINNLKNEDTATYFCARKGVTAARYFDYWGQGTTLTVSS
VL: DIVMTQSPKFMSTSVGDRVSITCKASQNVRTAVAWYKKKPGQSPKALINLASNRHTGVPDRFTGSGSGTDFTLTISNVQSEDLADYFCLQHWNYPLTFGGGTKLEIK
B8: MTK-06 (antibody, human IgG1, V domains shown)
VH: QIQLVQSGPELKKPGETVKISCKASGYTFTNYGMNWVKQAPGKGLKWMGWINTNTGEPTYAEEFKGRFAFSLETSASTAYLQINNLKNEDTATYFCARYYNYWYFDVWGAGTTVTVSS
VL: B4 VL with T26S, G30S, H81D, G91S, N93K, F95P, S99G
B9: MTK-15 (antibody, human IgG1, V domains shown)
VH: QIQLVQSGPELKKPGETVKISCKASGYTFTNYGVHWVKQAPGKGLKWMGWINTYTGEPTYADDFKGRFAFSLETSASTAYLQINNLKNEDMATYFCARGNRYAYMDYWGQGTSVTVSS
VL: B4 VL with T26S, G30S, P39S, H81D, G91S, F95R, S99G
B10: MTK-10 (antibody, human IgG1, V domains shown)
VH: QVTLKESGPGILQPSQTLSLTCSFSGFSLTTSGMGVGWIRQPSGKGLEWLAHIWSDDDKRSNPALKSRLTISQDSSTNQVFLKIASVDTADSATYYCSHLTPVREFAYWGPGTLVTVSE
VL: DIQMTQTTSSLSASLGDRVTISCSASQGISNYLNWFQQKPDGTVKLLIYYTSRLHSGVPSRFSGSGSGTDFSLTISNLEPEDIATYYCQQYTKLPYTFGGGTKLEIK

Numbering of substitutions follows the chain as printed.

The target of one assay is T1, murine MerTK overexpressed on CHO cells …. Briefly: flow cytometry on CHO-muMerTK OE cells, Prism fit. The protocol:
(§1) To determine whether recombinant anti-human MerTK antibodies of the present disclosure bind to human MerTK endogenously expressed on SK-MEL-5 cells and to CHO cells overexpressing mouse MerTK (CHO-muMerTK OE cells), the following experiments were performed. SK-MEL-5 cells and CHO-muMerTK OE cells were plated at 40,000 cells/well. Anti-MerTK antibodies were titrated to a final concentration range of between 66.6 nM to 4 pM and then added to the cells. After 30 min on ice, cells were washed and then stained with APC-conjugated mouse anti-human Kappa antibody (Southern Biotech Cat #9230-11, Birmingham, Ala.) and a viability die (Life Technologies) in the presence of Fc block solution on ice for 30 minutes, and then washed twice with cold FACS buffer (2% FBS in PBS). Cells were fixed with 4% paraformaldehyde in PBS. Stained cells were acquired on a BD FACS Canto II cytometer and the mean fluorescence intensity (MFI) was calculated with FlowJo software and K value was calculated with Prism software. […] A lower Kd value reflects higher binding of antibody to cells.
(In general: Flow cytometry measures light scatter and fluorescence of single cells or particles in a stream.)
For the molecule B1, binding was characterised by a dissociation constant (Kd) of 0.24 nM. The same measure, in the same setting: for B2 the value was 2.91 nM; for B3, 0.53 nM; for B4, 5.22 nM. Same read-out and setting: with B5 the figure was 0.22 nM.

In another assay the target is T2, human MerTK endogenously expressed on …. Briefly: flow cytometry on SK-MEL-5 cells (endogenous human MerTK), APC anti-human kappa detection, MFI. The procedure:
as §1
On to B6, for which the EC50 (read off the curve) – broadly, the concentration at which the effect is half-maximal – was roughly 0.6 nM. On the same count and under the same terms, for B7 the value was roughly 2 nM; for B8, roughly 0.2 nM; for B9, roughly 0.2 nM. Same read-out and setting: for B10 the value was roughly 0.3 nM.
